Experimental data as given in a protein production outcome set (Wang et al. 2014).
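Further: failed if final PepcDB status was selected cloned or expressed and not failed if soluble or beyond.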

Assay: label from the status in PepcDB records
With “MATVAFHTLGCKVNHYETEAIWQLFKEAGYERKEFESSADVYVINTCTVTNTGDKKSRQVIRRAIRQNPDAVICVTGCYAQTSPAEIMAIPGVDIVVGTQDREKMLGYIKQYQEERQPINGVSNIMKARVFEELDVPAFTDRTRASLKIQEGCNNFCTFCIIPWARGLLRSRDPEEVIRQAQQLVDAGYKEIVLTGIHTGGYGEDMKDYNFAQLLKELDSRVKGLKRIRISSIEASQITDEVIEVLDRSDKIVRHLHIPLQSGSNSVLKRMRRKYTMEFFADRLTKLKKALPGLAVTSDVIVGFPGETEEEFMETYNFIKEHKFSELHVFPYSKRTGTPAARMDGQVDENVKNERVHKLIALSDQLAKEYASDYEGDVLEIIPEEPFTETGEGNLLVGYTDNYIKVVFEGSEDLIGQLVKVKILKAGYPYNKGQFVRVAEDDVRENIRLSS” the protein production was “failed”. With “MAVAGAVSGEPLVHWCTQQLRKTFGLDVSEEIIQYVLSIESAEEIREYVTDLLQGNEGKKGQFIEELITKWQKNDQELISDPLQQCFKKDEILDGQKSGDHLKRGRKKGRNRQEVPAFTEPDTTAEVKTPFDLAKAQENSNSVKKKTKFVNLYTREGQDRLAVLLPGRHPCDCLGQKHKLINNCLICGRIVCEQEGSGPCLFCGTLVCTHEEQDILQRDSNKSQKLLKKLMSGVENSGKVDISTKDLLPHQELRIKSGLEKAIKHKDKLLEFDRTSIRRTQVIDDESDYFASDSNQWLSKLERETLQKREEELRELRHASRLSKKVTIDFAGRKILEEENSLAEYHSRLDETIQAIANGTLNQPLTKLDRSSEEPLGVLVNPNMYQSPPQWVDHTGAASQKKAFRSSGFGLEFNSFQHQLRIQDQEFQEGFDGGWCLSVHQPWASLLVRGIKRVEGRSWYTPHRGRLWIAATAKKPSPQEVSELQATYRLLRGKDVEFPNDYPSGCLLGCVDLIDCLSQKQFKEQFPDISQESDSPFVFICKNPQEMVVKFPIKGNPKIWKLDSKIHQGAKKGLMKQNKAV” the protein production was “not failed”. In the case of “MAVEEFNQNLNEIMKFKECNITVDTCVVIDGRITELISDGTIEKCTIIVPEAVISELEAQANKGREIGYFGIEELKKLVKVAKENEMVLEYYGERPSTGEVSLAKAGEIDAMIRKVAKDTNSILFTSDRIQYNLAIAQNINAHFLKVHEEKVDLKLV”, the protein production is reported as “failed”. For “MAVFHDEVEIEDFQYDEDSETYFYPCPCGDNFAITKEDLENGEDVATCPSCSLIIKVIYDKDQFMCGETV”, the protein production was “not failed”. With “MAVGFFAQVIDGALGMAYGITATTFLLSAGATPAAASASVHIAEVFTTGFSGISHVKLGNVNKSLFLRLLLPGMIGAVLGAVLITRFDGHQLKPFISAYLLLMGLYILSKAYRHVIKRRAPRHVAKLALFGGFVDAAGGGWGPVVTSSLIGSGSDPRTTIGSVNFAEFFLTIASATSFILLAGQPDTWKMVAGLVFGGLFAAPFAALLCKKLSPRTLLVIVGTLITLISAYNIYIGLR” the protein production was “failed”. For “MAVLPPDPVFSLRSPDMGAVNSLCFQESDRLLAGTIKGSVFLWDLQTNRSALHFEVGSDPITSLHHTPDRLVTQEKGGTITMFSIGGSSYVKERSIPGNHLGFCRSALHTNTSKTNEQLLFYPCEESSIGVLHVTDAAAPTQILVPDDPQLPKLGSVTCFKPFECASQLFLLAGYESGHFLTWDISSSVILDVMELAQDATSVDYDPVTNRGIVGGPTDKLISFSYQRSSMQMQLGSELCIKNPGVNGVRIRPDQKVFASAGWDGRIRIFSWKSLRPLAVLTQHKNGGVMDLAFSSQQVAMWHAPIMAAAGMDGQISLWDLYN”, the protein production was “failed”. For “MAVLVTGATGFIAQWVLDCLLKENYQVIGTVRSQEKGDKLHKQFGSPSKLSFEIVKDISDTEAFEPLFKKRGKEIDIVLHMASPCHFNTSDYEKDLLIPALNGTKGVLNAIKKYGDVKKVVVTSSYAAITDMVNSADGSLVFTEKDWNPATWERCQTDAVNAYCASKKFAEQAAWEFSKETGVSLTTINPVFVFGPQKFDEDVTSQLNTSNEIINGLIHSKPGDKLEPDYHSAYVDVRDVARAHLVAFQKDTTGERLGLSNGAFNCQSILDILNEKFPQLDITKGPEPGMGDTKPGAVFDNRHSKEVLAFPFISLEQCVYDTVAQVLKKEGRLLEHHHHHH”, the protein production was “not failed”. In the case of “MAVMARHESYYGNTKPAKLNEEKVTRVRFYLHDTLSGQNPTAVRIAHANLTGGSASPVGFGSLFVIDDPLTVGPEKHSKEIGNGQGMYVSGCKDLSKFTIVMYADLAFTAGKFNGSSISIFSRNPVAEEVGEREIAIVGGRGKFRMARGFVKVKTNKIDMKTGDAVLRYDATVYHY”, the protein production is reported as “failed”. With “MAVRGVSLRQPYPREPRGWHQEWSLRRAMRMARAAYWESYSATATDFWMSAEFTSLYDADTPDDSVPLAPARDHDLTDSHAILQAHYAACWTEGRPFAVETKLIKPDGRLLDCVVHGEPEFDANGQVQRVFGIVRDATPETSALRQLAVSEQRLADFVSTASDWCWESGPDHRLLPYPKSLDGNAALQTVASGGKARWELAYAPDEEGSMALHRDDMEAHRPFRDFIYTSIGNDGSRIIISTSGKPIFADDGTFLGYRGTASDITQLAAARTLLDQRTGALEEAHRLGRIGTWTHRLDTGRTVWSPELYQLLGLEPDAFEPTYEGTEPYFLDDDAARLLKIQKRVLRTSTTEATDIRILHTDGTPRDLAIICKAEISNGNVIGLIGTAQDVTDRKEAERRLEQLAYTDPLTGLANRALYKRKLADLFENPMAEHGQNALYLIDLDRFKEVNDSLGHSTGDSLLIHVAGVLRQELGPQAFIARIGGDEFAVLTNSPNTSVEATTALADRLIAKLSVPVELAEGEACIGATIGIAILPEHGATAEKASRNADLALYMAKEAGRGRAQLFEPMYAEAVDQKLDLGRRLRHAVDSGGLNTHYQPQIDLKTGRVIGFEALLRWSHPERGPISPAEFIPIAETTGLIVDLGHWVLRDACKQMRGWLDAGLPARTISVNVSPAQIWNGDFEKVVATVLADTGLPPELLCLELTENLFVDHTKQKVSTTLAALSKLGIQLALDDFGSGYSSLGYLTRLPFNRLKIDRSFVDGIATVPEKRKLLGGIIALSHGLGMSVVAEGAELQAEVDLLAAFDCDFVQGYAFSKPVAADQAAVVAAEIERKPGR” the protein production was “failed”. With “MAVRVCCHAPPGVSNHLFTFCAGNLTTGFSGGSVTSQKGGAAGLPTCSRRCPRGCLPGSDPLPRHPRRYAPPVTPPVTPPTTPAPRSRARMLELVFPKDTNYHGTAFGGWVLALMDKAASVAAVRHAGGNVVTARMDGVDFHVPIRVGDAVALDARVIRVGRSSMTIRVDVYRENMASGEQQLATGGLFTFVALGEDGKPRPVPPLPEGSTDSEQPDYEARPLEHHHHHH” the protein production was “failed”. For “MAVSPDDPLILVGRVAGGFGVRGEVRITTYTEDPLSIAGFKALKRQDGSPALTIASARKTKDGVVCRCPGVETKEAADALRGLRLYVPRSALPEPDDDEFYLTDLVGLTVRHIQTDQLLGRVKSVQNFGAGDILEITPDLGGPTWYLPFTRAAVPEVRVSEGLILADPPALVGDHEGPEEKGLDENEELGDRDLEHHHHHH”, the protein production was “failed”. In the case of “MAVTISGVRKHSPAYRHGIQAGERLLTLNGNEIMDVLDYRFYQLNTALVLELENNRGERRTVSLKKPEYEEIGLEFETYLMDRQHSCKNKCVFCFIDQLPKGLRKSLYFKDDDSRLSFLFGNYVTLTNLTEHEISRIIKMHISPMNISVHTTNPELRVKMMKNPRAGEALSIIRRFAQAGIKINCQIVLCPGYNDGEELKRTLSDLETMCPQVQAVAVVPVGITRYRQNLPEMRSFTRETAGEAIDLIESFGEKCLQKYGTRVAYPGDEFYLKAERPLPPAGFYEDFSMLENGVGLLPLLMDEFYSALEEAGETGGRKREITIATGMAPREYIRGFLDDAIKKFPHISGRVTPIVNRFFGETITVSGLVTGTDLIEQLSSVDLGDELLIPACMLRREGDLFLDDVSLQDVEAALKVPVRPVPNDGYAFLDAILGSESLEHHHHHH”, the protein production is reported as “failed”. In the case of “MAVTLQQTLIDIDEEQLVFHLHNDQISYILGVETGNVLAHLYFGPRVRGYHGERQYPRIDRGFSGNLPNTTDRSYSKDDLPQEYGGNNTGDYRQPAAIIRAANGARTVDFRYQDCRMEAGKPELKGLPQTYVEDEDEAQTLIVTLRDATLGVTLELAYTIYRDRPVITRSARLINHSEQAVDLEKVASMQMDLPTQPLDAISLPGSYARERQLSRERLHRGVTQFESRRGASSHHMNPFVALADPNTNEFQGNVLGALLIYSGNHQISLERDPIGQTRLTMGINEYNFDWRLAAGDSFQTPEVAMVYSTTGLNGMSQTYHDLLRDRVARSRYKHDLRPILINNWEATYFDFDADKIQSILDAAAPLGIEMFVLDDGWFGHRNDDNSSLGDWFVNRNKLPGGLADISKRTHDKGMRFGLWFEPENISADSDLYRAHPDWVLGVPDRGRTLSRNEYVLDFSQPDVVDNIFEQMTAVLDKVPIDYIKWDMNRNLTEVYSPHSDSTHEGETSHRFILGVYDLMERLTKRYPQILFEGCSGGGGRFDAGLMYYMPQSWPSDNNDPIERLKIQYGTSLVYPISAITAHVGTSPDELLGRSTSMKMRGAVAMSGTLGYELDAAQLSDADKQAVKRQVAFYKQHRELVQYGTFYRLESPFESNTVAWMFVSPDQKEALLFTFVILGAVQPEPHITKLAGLDPQQTYVETDTNKMYGGDELMQLGLYTTPVQTSDFTAQVHYFKAKDLEHHHHHH”, the protein production is reported as “failed”. In the case of “MAVTPVLACYRTCDAAIGGITAWQVTTGPDGPRTNVVGSCPLGDASWVTPLYHLVVVLCERDGTLVVVHPGREFQVVGTVQLKGQWPCHGAVDPTGRLMAVADYASGQVEFVDLSDPTRPTVRNVLDLGQGCVFPRPVADRQEGPHAHQVTWLDRAHLAVTDLGADRINVVRWSEAGPEIIGSLKTPAGCGPRHLTLTEDGRKQILTVGGALSGTVSTWSRPTGHDMWAREWRFVQETASSRWSHTGSQERRSACTPASPSAIVTTPDGRHFVANRSVGSIGILGGRFGRINLIDEFDTTGANPRDITVTTQNGTRVWVALPEEGQIAIHLRDEDTGGWQVETTIDQPGAMRVIVGPTTG”, the protein production is reported as “failed”. In the case of “MAVYNPKPEFFRQAVLSVLGQTMPVLELVLVNDGGSDEFKSVLPDDDRIRVFTKPNEGVAATRNFAIKQCRGEYIAFLDQDDYWYSDKLAEQMAMISVKGEACMVISPVDIVDNQGVPIIKQNRKKVTNRYFRKIAHPDIRFPLADGNFIYSSTPLIHRRVFECVGLFDSFTQPHDDWDMYLRIALAGISVHCYRERALSVWRMHDSNESQKRMAMMLSKCEVEWKILQGGVPEPVAKIMHSNLALDQIVMDNLWYNEREFARFRETVRRDLPGLMRCAVNSGRHDRYVTGYRKRAASAIIKSARRYLLSLFSRQR”, the protein production is reported as “failed”. For “MAWFLLVIAGIEEIIAAIAMKYIDGTRKKWPIIVMTVGFGLSFYCLSQAMIVLPAGVAYAVWTGIGSIGVSAVGLIWFKERFQLSQVISLCLILAGVIGLRLTSSS”, the protein production was “failed”. In the case of “MAWGVCDINGSFAGQNPVTTRLSVRRCQWRCVDFAHSKCLRTQNYRVQMRSCRTGVYGSPRGDANEAVPPPHQPKGPLRTMPLETLINAGFVDYLILLIYFVFVLGIGLAARHQVSDSLDFFLSGRSLPGWVTGLAFVSANLGAVEIMGMSANGAQIGIPTVHYFWIGAIPAMVFLGIVMMPFYYGSGVRSVPEFMLKRFGPAAHLVNAISFALAQLLIAGINLYLLGTIVHALLGWPLWVALIVAAMIVLAYISLGGLSAAIYNEVLQFFVIVASLLPLVIIGLHRVGGWSGLKAKITAAAEAHPDVVTPAAQQLHSWPGQALSGFGSPVMSVIGITLGLGFVLSFGYWTTNFVEVQRAMASDSLSSARKTPTIGAFPKMLVPFLTVLPGMLAAVLVPEIARMKAGEKVAGGASGSFVQYNDSVLFLIRNLLPTGLTGVAITGLLAAFMAGMAANISAFNTVFSVDIWQHYVIKDKPDGYYVKVGRIATVIATVVAIGTAFMASGFSNIMDYLQTLFGFFNAPLFATFILGMFWKRSTPHAGWSGLVVGTLSAVTVWVMSLAGVFTLPGQGTAFLAATVGFVADIIVSIVVSLFTEPKPAAELVRLVYSETPKEHLVDPLEKDLPWYRRTVPLGMTVLAITVVLNIIF”, the protein production is reported as “failed”. In the case of “MAYGDKDEVLSVDVGSNAKVMKHLDGDDAMKKAQVRGRSGQEFSKETTKMMMKKTTKKETNVEEEDDLVAYTADYWKPRHHPPKNN”, the protein production is reported as “failed”.
